Publication PMC11420955
Changes are numbered by the printed parent chain. Names may count otherwise. Each block holds one molecule with its values, some of them ahead of it.

How the values were obtained:
McjB M108T = McjB M108T (UniProt Q9X2V8)
McjB = biological target: T1, McjB (UniProt Q9X2V8)
T1 sequence: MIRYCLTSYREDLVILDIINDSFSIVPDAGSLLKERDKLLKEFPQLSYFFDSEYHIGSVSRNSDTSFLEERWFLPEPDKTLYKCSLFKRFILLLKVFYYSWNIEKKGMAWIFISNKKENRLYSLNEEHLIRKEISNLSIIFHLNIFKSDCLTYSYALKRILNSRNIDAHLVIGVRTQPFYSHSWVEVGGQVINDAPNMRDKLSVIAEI

McjC K337E = McjC K337E (UniProt Q9X2V9)
McjC S440Y = McjC S440Y (UniProt Q9X2V9)
McjC = biological target: T2, McjC (UniProt Q9X2V9)
T2 sequence: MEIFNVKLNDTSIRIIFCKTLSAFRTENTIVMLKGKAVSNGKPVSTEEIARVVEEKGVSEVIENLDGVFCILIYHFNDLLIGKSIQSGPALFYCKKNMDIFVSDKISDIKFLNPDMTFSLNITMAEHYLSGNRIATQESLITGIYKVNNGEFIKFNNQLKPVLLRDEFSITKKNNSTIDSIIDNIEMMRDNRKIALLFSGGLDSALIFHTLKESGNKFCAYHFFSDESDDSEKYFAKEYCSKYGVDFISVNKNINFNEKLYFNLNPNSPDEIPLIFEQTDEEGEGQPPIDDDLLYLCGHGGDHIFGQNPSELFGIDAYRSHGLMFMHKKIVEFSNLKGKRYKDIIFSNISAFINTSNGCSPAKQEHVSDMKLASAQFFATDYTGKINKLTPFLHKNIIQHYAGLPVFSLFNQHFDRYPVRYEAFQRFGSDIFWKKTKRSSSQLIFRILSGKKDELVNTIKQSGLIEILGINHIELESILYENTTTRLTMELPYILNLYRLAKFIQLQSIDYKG

MccJ25 production yield relative to WT (HPLC peak area of E. coli culture extract; synthetic rescue pair TM) (McjB M108T): 5.4% | MccJ25 production yield relative to WT (HPLC peak area of E. coli culture extract) (McjB): 1%
Molecule: McjA T-2M (peptide)

MccJ25 production yield relative to WT (HPLC peak area of E. coli culture extract) (McjC K337E): 8.1% | MccJ25 production yield relative to WT (HPLC peak area of E. coli culture extract) (McjC S440Y): 2.4%
Molecule: Microcin J25 precursor peptide McjA

MccJ25 production yield relative to WT (HPLC peak area of E. coli culture extract) (McjC): 41%
Molecule: Split McjB S80/81 (B1 1-80 and B2 81-208 as separate proteins) (from UniProt Q9X2V8 1-80; Q9X2V8 81-208) (complex)

MccJ25 production yield relative to WT (HPLC peak area of E. coli culture extract) (McjC): 4.4%
B1: McjB circular permutant CP80/81 (enzyme)
chain: LYKCSLFKRFILLLKVFYYSWNIEKKGMAWIFISNKKENRLYSLNEEHLIRKEISNLSIIFHLNIFKSDCLTYSYALKRILNSRNIDAHLVIGVRTQPFYSHSWVEVGGQVINDAPNMRDKLSVIAEIGGSSGGMIRYCLTSYREDLVILDIINDSFSIVPDAGSLLKERDKLLKEFPQLSYFFDSEYHIGSVSRNSDTSFLEERWFLPEPDKT

MccJ25 production yield relative to WT (HPLC peak area of E. coli culture extract) (McjC): 0.4%
B2: McjB circular permutant CP60/61 (enzyme)
chain: RNSDTSFLEERWFLPEPDKTLYKCSLFKRFILLLKVFYYSWNIEKKGMAWIFISNKKENRLYSLNEEHLIRKEISNLSIIFHLNIFKSDCLTYSYALKRILNSRNIDAHLVIGVRTQPFYSHSWVEVGGQVINDAPNMRDKLSVIAEIGGSSGGMIRYCLTSYREDLVILDIINDSFSIVPDAGSLLKERDKLLKEFPQLSYFFDSEYHIGSVS

MccJ25 production yield relative to WT (HPLC peak area of E. coli culture extract; McjB-MBP in an otherwise native gene cluster) (McjC): 61%
B3: McjB with a C-terminal MBP fusion (enzyme)
chain: T1 sequence

MccJ25 production yield relative to WT (HPLC peak area of E. coli culture extract) (McjC): 0.6%
B4: McjB F67R (enzyme)
chain: T1 sequence with F67R

MccJ25 production yield relative to WT (HPLC peak area of E. coli culture extract; McjC-MBP in an otherwise native gene cluster) (McjB): 86%
B5: McjC with a C-terminal MBP fusion (enzyme)
chain: T2 sequence
